Results on 4 molecules are retold here after publication doi:10.1101/2024.03.15.585150 (bioRxiv, 2024).

Assay [1] has as its target T1, KIX domain of CBP coactivator (KIX region 586-672) (UniProt P45481 586-672). Nature of the assay: BLI. (In general: BLI is a label-free optical method that tracks binding on a fibre tip over time.)
Assay [2] concerns the target T1, KIX domain of CBP coactivator (KIX …). The assay is described as follows: BLI. The source holds these as a separate data set.

Where two headings read alike, the source gives them in different places. No end group written: not given here. *: point of attachment. Biotin = O=C1N[C@H]2[C@H](CS[C@H]2CCCCC(=O)*)N1

B1: MLL peptide (MLL 9aaTAD), Biotin-GS-NILPSDIMDFVLKNT (peptide)
peptide: Biotin-GSNILPSDIMDFVLKNT
The term Kd denotes the concentration at which binding is half-saturated. Take B1: the Kd in assay [1] was determined as 1170 ± 210 nM.

B2: N-Myc peptide (N-Myc 9aaTAD), Biotin-GSSS-EPPSWVTEMLLEN (peptide)
peptide: Biotin-GSSSEPPSWVTEMLLEN
On to B2, for which, in assay [1], binding was put at a Kd of 880 ± 110 nM.

B3: c-Myc peptide (c-Myc 9aaTAD), Biotin-GSSS-TQLEMVTELLG (peptide)
peptide: Biotin-GSSSTQLEMVTELLG
B3 came in with a Kd in assay [1] of 2160 ± 1170 nM.

B4: Sp1-Ac peptide (acidic form of Sp1 9aaTAD), Biotin-GSS-GDVSWDTLDLDDLD (peptide)
peptide: Biotin-GSSGDVSWDTLDLDDLD
As to B4, the Kd in assay [2] worked out at 9770 ± 1570 nM.
